Data taken from patent publication US12655409B2, “Recombinant lysin and its use in the treatment of Gram-negative bacterial infections” (TELUM THERAPEUTICS S.L., priority 2020, dated 2026).

How the values were obtained:
[1] = tested on: E. coli strain ATCC 25922; assay: Stability studies by E. coli bactericidal activity assay; format: physicochemical, Escherichia coli; conditions: 29 days of storage; −80, −20, 4, 25° C.; glycerol 0 to 10%
Procedure: To that end, E. coli strain ATCC 25922 and 15 μg mL^−1 of IKB206 dissolved in different concentrations of glycerol (0, 0.2, 2, 5 and 10%) were used. The assays were carried out at different storage temperatures (−80° C., −20° C., 4° C., 25° C.) and storage times (1, 5, 7, 14, 21 and 29 days).

[2] = tested on: Pseudomonas aeruginosa; assay: Enzyme bactericidal activity assay on P. aeruginosa; format: cell-based
Procedure: (§1) Briefly, the different bacterial cultures were incubated in the specific media (Table 1) at 37° C. or 30° C., according to the strain, until reaching an A600 of 0.3. The cells were then deposited by centrifugation (4500×g, 10 min) and washed twice with the corresponding buffer, with the A600 being adjusted to ≈0.3. […] The control wells were treated with the same volume of buffer […]. The plates were incubated at 37° C. Samples were taken at different times, serial dilutions performed, and they were seeded in plates containing the specific medium to determine viable bacteria. The experiments were repeated at least 3 times. The bactericidal effect of IKB206 (and its variants) was quantified as the number of logs reduced in the presence of treatment, after a given incubation time (log10 (N0/Ni), where N0=number of CFU mL^−1 before treatment, and Ni=number of CFU mL^−1 after the corresponding incubation time in the presence of each treatment).

[3] = tested on: Klebsiella pneumoniae; assay: Enzyme bactericidal activity assay on K. pneumoniae; format: cell-based
Procedure: as §1

[4] = tested on: E. coli ATCC 25922; assay: Efficacy assay using a sepsis model in zebrafish; format: in vivo; conditions: 72 hpi
Procedure: Once the minimum lethal dose is determined, the six-month old wild-type zebrafish (1.2 grams) were inoculated intraperitoneally (IP) with a total of 10 μl containing 5.5×10^7 CFU mL^−1 of the bacterium E. coli grown in LB medium. All the experiments were repeated at least three times.
To study the protection mediated by the chimera IKB206tags, groups of five (5) six-month old wild-type female zebrafish were infected intraperitoneally (IP) with a lethal dose of the bacterium E. coli (5.5×10^7 CFU). After 1 h, the animals were treated by administering 10 μl of IKB206tags subcutaneously with a dose of 1, 0.5, and 0.25 mg kg-1 of body weight. The fish included in the control group were treated with the buffer in which the protein is dissolved. The animals were observed several times a day and the number of deaths was recorded daily 72 hours post infection (hpi).

[5] = tested on: human HEK293 cells; assay: Cytotoxicity assay by means of sulforhodamine B; format: cell-based; conditions: 50 to 400 μg mL^−1, 48 h
Procedure: A seeding test was performed with human HEK293 cells before performing the experiment. To that end, three different cell concentrations were seeded in a 96-well plate in 100 μl of DMEM medium+10% Fetal Bovine Serum (FBS). These cells were incubated at 37° C. and 5% CO2 for 72 h, monitoring growth. The initial cell concentration showing 80% confluence at 72 h was selected for the further assays, which in this case was 7000 cells/well. Twenty-four hours after seeding the cells, another 100 μl of medium with the concentrations of purified protein IKB206tags to be tested was added. In this case, 400 μg mL^−1, 200 μg mL^−1, 100 μg mL^−1, and 50 μg mL^−1. The assays were performed in quadruplicate. As controls, the cells were incubated only with culture media and with the buffer in which the protein is dissolved (vehicle control). Buffer volume added as a vehicle control was the same volume of the highest protein concentration. The plate was left to incubate for another 48 h. The results were obtained by means of fixing the cells by adding 50 μl of 50% cold trichloroacetic acid (TCA) per well and leaving the plate to incubate for 1 h at room temperature. After discarding the TCA, the plate was washed with distilled water and 40 μl of 0.4% sulforhodamine B (SRB) were added. […] The results were read in Cytation (Bioteck, USA) at an absorbance of 510 nm.

[6] = tested on: E. coli strain DSM 17076 with serotype O157: H7; assay: Enzyme bactericidal activity assay on E. coli serotype O157:H7; format: cell-based, Escherichia coli; conditions: 15 μg mL^−1
Procedure: (§2) Briefly, the different bacterial cultures were incubated in the specific media (Table 1) at 37° C. or 30° C., according to the strain, until reaching an A600 of 0.3. The cells were then deposited by centrifugation (4500×g, 10 min) and washed twice with the corresponding buffer, with the A600 being adjusted to ≈0.3. A volume of 160 μl of the bacterial suspension was transferred to sterile 96-well plates to which there were added 40 μl of the enzyme under study in a range of doses comprised between 1 and 60 μg mL^−1. The control wells were treated with the same volume of buffer […]. The plates were incubated at 37° C. Samples were taken at different times, serial dilutions performed, and they were seeded in plates containing the specific medium to determine viable bacteria. The experiments were repeated at least 3 times. The bactericidal effect of IKB206 (and its variants) was quantified as the number of logs reduced in the presence of treatment, after a given incubation time (log10 (N0/Ni), where N0=number of CFU mL^−1 before treatment, and Ni=number of CFU mL^−1 after the corresponding incubation time in the presence of each treatment).

[7] = tested on: strains from S. xylosus, E. avium, E. faecium and E. faecalis; assay: Enzyme bactericidal activity assay on strains of chicken microbiota; format: cell-based; conditions: 15 μg mL^−1
Procedure: as §2

[8] = tested on: E. coli ATCC 25922; assay: MIC by microdilution in TP-Na 10 mM pH 6.15; format: cell-based, Escherichia coli
Procedure: The IKB206tags endolysin was purified from the Escherichia coli BL21 (DE3) strain, as previously described.
Checkerboard tests were assessed by the microdilution method, as previously described (Moody JA 1992, Moellering E G., Jr.1996). […] Each microtiter well contained 100 μl of a E. coli inoculum of 1×10^5 CFUs mL^−1, with or without the corresponding compounds, in a final volume of 200 μl of Sodium phosphate (TP-Na) buffer 10 mM pH 6.15 per well and the plates were incubated at 37° C. for 17 h.

[9] = tested on: Citrobacter freundii; assay: Enzyme bactericidal activity assay on C. freundii; format: cell-based; conditions: compared with E. coli or K. pneumoniae
Procedure: as §2

[10] = tested on: Serratia marcescens; assay: Enzyme bactericidal activity assay on S. marcescens; format: cell-based; conditions: incubation time of 120 min
Procedure: as §2

[11] = uninfected fish, 1 μg g-1
Procedure: The intraperitoneal (IP) route is chosen for an infection model as it is easy and quick to implement, turning this technique into one that is particularly indicated for use in different groups of experimentation animals. One hour after infection with E. coli ATCC 25922, different doses of IKB206 were administered to each of the groups. […] Furthermore, to determine the toxicity of IKB206 in adult fish, assays in which uninfected fish were inoculated with the highest amount of protein used in the efficacy assays (1 μg g-1) were performed.

[12] = tested on: E. coli strain ATCC 25922; assay: Enzyme bactericidal activity assay on E. coli ATCC 25922; format: cell-based, Escherichia coli
Procedure: as §2

[13] = tested on: Acinetobacter baumannii; assay: Enzyme bactericidal activity assay on A. baumannii; format: cell-based
Procedure: as §1

B1: IKB206: fusion of Enterobacter phage Arya putative endolysin (SEQ ID NO:1) and domain D8 of Bacillus amyloliquefaciens phage endolysin (SEQ ID NO:2), without tags (protein)
chain: MKTSPNGIAVTKYFESFEARAYPDPATGGKPYTIGFGTTVYPSGAPVRLGDVCTKEQAEKYLQNDLAKFEKIVSDAVRVPLNQGQFDALVSFTYNLGPANLRSSTLLKKLNAGDYAGAAKEFPRWNRANGKVMKGLTRRRAAEQCLFEGMGGASAIERGVAAANSGTPKNVSRGTSSTKTTPKYKVKNGDNLTKIAKKHNTTVATLLKLNPGIKDPNMIRVGQTLNVTGSGGKTHKVKSGDTLSKIAVDNKTTVSKLMNLNPEITNPNHIKVGQTIRLS
modifications: Chimeric endolysin (SEQ ID NO1 + SEQ ID NO2)
stability (bactericidal activity after storage) [1]: still fully active
bactericidal activity ([2]; 15 μg mL^−1, 120 min): bactericidal activity
killing of the cells present in the assay ([2]; 150 μg mL-1, 120 min): capable of killing all the cells present in the assay
reductions in CFU/mL ([2]; 15 or 150 μg mL^−1): more than 4 logs
bactericidal activity ([3]; 15 μg mL^−1, 120 min): bactericidal activity
killing of the cells present in the assay ([3]; 150 μg mL-1, 120 min): capable of killing all the cells present in the assay
bactericidal activity (reduction) ([3]; under the tested conditions (15 or 150 μg mL^−1)): ≥ 4 logarithms
survival (protection) ([4]; 1 μg g-1 (1 mg kg-1) subcutaneously 1 h after infection): 66.6%
survival (protection) ([4]; 0.25 mg kg-1 subcutaneously 1 h after infection): 16.6%
survival (protection) ([4]; 0.5 mg kg-1 subcutaneously 1 h after infection): 33.3%
cytotoxicity versus control (culture media) [5]: not toxic
bactericidal activity on serotype O157:H7 [6]: excellent activity
bactericidal effect on chicken gut microbiota strains [7]: virtually no effect
MIC [8]: 9.375 µg/mL
bactericidal activity [9]: significantly lower than that observed in E. coli or K. pneumoniae
bactericidal effect [10]: ~3 logarithms
toxicity in adult fish versus protein buffer [11]: no differences
reduction in CFU mL^−1 ([12]; 5 μg mL^−1, 15 min of incubation): significantly reducing
incubation time for killing the entire culture ([12]; 15 μg mL^−1): 30 min
reduction of the number of CFU mL^−1 ([12]; 15 μg mL^−1, 5 minutes of incubation): significantly reducing
bactericidal effect (log reduction) ([12]; 15 μg mL^−1, 15 minutes of incubation): more than 3 log
reduction of the bacterial suspension ([12]; 15 μg mL^−1, 30 min of incubation): 5 log
incubation time for killing the entire culture ([12]; 60 μg mL^−1): 15 min
bactericidal activity ([13]; 15 μg mL^−1, 120 min): bactericidal activity
killing of the cells present in the assay ([13]; 150 μg mL-1, 120 min): capable of killing all the cells present in the assay
reductions in CFU/mL ([13]; 15 or 150 μg mL^−1): more than 4 logs
